# B1: Ebola virus transmembrane glycoprotein GP (natural protein)
# chain: IPLGVIHNSTLQVSDVDKLVCRDKLSSTNQLRSVGLNLEGNGVATDVPSATKRWGFRSGVPPKVVNYEAGEWAENCYNLEIKKPDGSECLPAAPDGIRGFPRCRYVHKVSGTGPCAGDFAFHKEGAFFLYDRLASTVIYRGTTFAEGVVAFLILPQAKKDFFSSHPLREPVNATEDPSSGYYSTTIRYQATGFGTNETEYLFEVDNLTYVQLESRFTPQFLLQLNETIYTSGKRSNTTGKLIWKVNPEIDTTIGEWAFWETKKNLTRKIRSEELSFTVVSNGAKNISGQSPARTSSDPGTNTTTEDHKIMASENSSAMVQVHSQGREAAVSHLTTLATISTSPQSLTTKPGPDNSTHNTPVYKLDISEATQVEQHHRRTDNDSTASDTPSATTAAGPPKAENTNTSKSTDFLDPATTTSPQNHSETAGNNNTHHQDTGEESASSGKLGLITNTIAGVAGLITGGRRTRREAIVNAQPKCNPNLHYWTTQDEGAAIGLAWIPYFGPAAEGIYIEGLMHNQDGLICGLRQLANETTQALQLFLRATTELRTFSILNRKAIDFLLQRWGGTCHILGPDCCIEPHDWTKNITDKIDQIIHDFVDKTLPDQGDNDNWWTGWRQWIPAGIGVTGVIIAVIALFCICKFVF
# Target: the molecule itself
# Assay: […]
protein,measurement,value
B1,stoichiometry N,3

# Source: paper doi:10.1101/2021.04.21.440744 (bioRxiv, 2021)
